The source of these data is paper PMC4132743 (Nucleic Acids Research, 2014).

For data set [1], the target named is T1, DnaT84-153 (Escherichia coli K12, UniProt P0A8J2 84-153).
T1 sequence: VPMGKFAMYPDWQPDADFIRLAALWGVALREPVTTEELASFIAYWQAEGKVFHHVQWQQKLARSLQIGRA
The experiment in a line: fluorescence polarization; apparent; Hill h=2.1±0.2; Buffer A: 20 mM Tris-HCl pH 7.5, 40 mM NaCl, 5% v/v glycerol, 20 C; FPA 200 nM 5'-FAM DNA, Hill fit; EMSA 30 min at 20 C, gels in 0.5x TBE at 4 C. The settings on record: protein: recombinant; tags: His-MBP removed by TEV; label: 5'-FAM.

Data set [2] deals with T2, DnaT84-179 (Escherichia coli K12, UniProt P0A8J2 84-179).
T2 sequence: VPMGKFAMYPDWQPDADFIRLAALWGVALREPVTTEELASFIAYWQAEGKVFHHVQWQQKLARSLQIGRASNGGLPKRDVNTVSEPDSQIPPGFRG
The experiment in a line: fluorescence polarization; apparent; Hill h=2.7±0.2; Buffer A: 20 mM Tris-HCl pH 7.5, 40 mM NaCl, 5% v/v glycerol, 20 C; FPA 200 nM 5'-FAM DNA, Hill fit; EMSA 30 min at 20 C, gels in 0.5x TBE at 4 C. The settings on record: protein: recombinant; tags: His-MBP removed by TEV; chain copies: 2; label: 5'-FAM.

For data set [3], the target named is T3, DnaT (wt, full length) (Escherichia coli K12, UniProt P0A8J2 1-179).
T3 sequence: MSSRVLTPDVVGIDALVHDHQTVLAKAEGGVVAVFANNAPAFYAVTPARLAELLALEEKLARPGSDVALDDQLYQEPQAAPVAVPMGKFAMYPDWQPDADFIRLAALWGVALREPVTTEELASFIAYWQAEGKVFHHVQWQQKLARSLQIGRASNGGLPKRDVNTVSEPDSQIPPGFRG
In words: fluorescence polarization; apparent; Hill h=3.6±0.3; Buffer A: 20 mM Tris-HCl pH 7.5, 40 mM NaCl, 5% v/v glycerol, 20 C; FPA 200 nM 5'-FAM DNA, Hill fit; EMSA 30 min at 20 C, gels in 0.5x TBE at 4 C. Particulars: protein: recombinant; tags: His-MBP removed by TEV; label: 5'-FAM.

For data set [4], the target named is T3, DnaT (wt, full length). In words: fluorescence polarization; apparent; Hill h=1.6±0.2; Buffer A: 20 mM Tris-HCl pH 7.5, 40 mM NaCl, 5% v/v glycerol, 20 C; FPA 200 nM 5'-FAM DNA, Hill fit; EMSA 30 min at 20 C, gels in 0.5x TBE at 4 C. Particulars: protein: recombinant; tags: His-MBP removed by TEV; label: 5'-FAM. (Fluorescence polarisation rises when a labelled molecule tumbles more slowly, as on binding a larger partner.)

Data set [5] concerns the molecule itself. The experiment in a line: SEC; Superdex 75 or Superdex 200 10/300 GL in buffer A (20 mM Tris-HCl pH 7.5, 40 mM NaCl, 5% glycerol), against molecular mass standards. (In general: SEC sorts molecules by how far they enter the pores of the column.)
Data set [6] concerns the target T3, DnaT (wt, full length). In words: fluorescence polarization; apparent; Hill h=2.3±0.2; Buffer A: 20 mM Tris-HCl pH 7.5, 40 mM NaCl, 5% v/v glycerol, 20 C; FPA 200 nM 5'-FAM DNA, Hill fit; EMSA 30 min at 20 C, gels in 0.5x TBE at 4 C. Particulars: protein: recombinant; tags: His-MBP removed by TEV; label: 5'-FAM.
Data set [7] concerns the molecule itself. In words: negative-staining electron microscopy; purified DnaT alone in buffer A (also after DNase I), 0.7% uranyl formate, FEI Tecnai F20.
In data set [8] the target is T3, DnaT (wt, full length). The experiment in a line: EMSA; 20 uM DNA; Buffer A: 20 mM Tris-HCl pH 7.5, 40 mM NaCl, 5% v/v glycerol, 20 C; FPA 200 nM 5'-FAM DNA, Hill fit; EMSA 30 min at 20 C, gels in 0.5x TBE at 4 C. The settings on record: protein: recombinant; tags: His-MBP removed by TEV.
Data set [9] concerns the target T3, DnaT (wt, full length). In words: fluorescence polarization; apparent; Hill h=1.8±0.2; Buffer A: 20 mM Tris-HCl pH 7.5, 40 mM NaCl, 5% v/v glycerol, 20 C; FPA 200 nM 5'-FAM DNA, Hill fit; EMSA 30 min at 20 C, gels in 0.5x TBE at 4 C. The settings on record: protein: recombinant; tags: His-MBP removed by TEV; label: 5'-FAM.
The target in data set [10] is T3, DnaT (wt, full length). In words: fluorescence polarization; apparent; Hill h=2.0±0.2; Buffer A: 20 mM Tris-HCl pH 7.5, 40 mM NaCl, 5% v/v glycerol, 20 C; FPA 200 nM 5'-FAM DNA, Hill fit; EMSA 30 min at 20 C, gels in 0.5x TBE at 4 C. The settings on record: protein: recombinant; tags: His-MBP removed by TEV; label: 5'-FAM.
Data set [11] concerns the target T3, DnaT (wt, full length). In words: fluorescence polarization; apparent; Hill h=2.5±0.6; Buffer A: 20 mM Tris-HCl pH 7.5, 40 mM NaCl, 5% v/v glycerol, 20 C; FPA 200 nM 5'-FAM DNA, Hill fit; EMSA 30 min at 20 C, gels in 0.5x TBE at 4 C. Particulars: protein: recombinant; tags: His-MBP removed by TEV; label: 5'-FAM.
Data set [12] has as its target T3, DnaT (wt, full length). The experiment in a line: fluorescence polarization; apparent; Hill h=2.3±0.3; Buffer A: 20 mM Tris-HCl pH 7.5, 40 mM NaCl, 5% v/v glycerol, 20 C; FPA 200 nM 5'-FAM DNA, Hill fit; EMSA 30 min at 20 C, gels in 0.5x TBE at 4 C. Particulars: protein: recombinant; tags: His-MBP removed by TEV; label: 5'-FAM.
Data set [13] concerns the target T3, DnaT (wt, full length). In words: fluorescence polarization; apparent; Hill h=1.8±0.3; Buffer A: 20 mM Tris-HCl pH 7.5, 40 mM NaCl, 5% v/v glycerol, 20 C; FPA 200 nM 5'-FAM DNA, Hill fit; EMSA 30 min at 20 C, gels in 0.5x TBE at 4 C. Particulars: protein: recombinant; tags: His-MBP removed by TEV; label: 5'-FAM.

As usually defined, the stoichiometry N is a count of units in the complex or per binding partner.

On to TTTTTTTTTTTTTTTTTTTTTTTTTTTTTT (ssDNA) [5F-dT30], for which the Kd in data set [1] came out at 27.1 ± 2.3 µM; in data set [2] it was 9.87 ± 0.32 µM; in data set [3], 12.9 ± 0.57 µM. For TGTGTGTGTGTGTGTGTGTGTGTGTGTGTG (ssDNA) [5F-d(TG)15], the Kd in data set [4] is 1.3 ± 0.11 µM.

B1: DnaT^84–153 (N- and C-terminal-truncated DnaT, recombinant fragment) (domain or fragment, Escherichia coli (strain K12), UniProt P0A8J2 84-153, looked up)
chain: VPMGKFAMYPDWQPDADFIRLAALWGVALREPVTTEELASFIAYWQAEGKVFHHVQWQQKLARSLQIGRA
notes: Dimer in solution by size-exclusion chromatography (see the N row); source: E. coli BL21 (DE3), purified (Ni-chelating resin, TEV digestion, HisTrap HP, HiTrap DEAE FF, Superdex 200); not shown: His, N-terminal, cleaved; MBP, N-terminal, cleaved
As to B1, the “stoichiometry N” value in [5] stood at 2.

B2: DnaT^84–179 (N-terminal-truncated DnaT) (domain or fragment, Escherichia coli (strain K12), UniProt P0A8J2 84-179, looked up)
chain: VPMGKFAMYPDWQPDADFIRLAALWGVALREPVTTEELASFIAYWQAEGKVFHHVQWQQKLARSLQIGRASNGGLPKRDVNTVSEPDSQIPPGFRG
notes: as for B1
Consider B2, for which the “stoichiometry N” value in data set [5] worked out at 2. Regarding TGGGTGGGTGGGTGGGTGGGTGGGTGGG (ssDNA) [5F-d(TGGG)7], in [6], the Kd was found to be 0.597 ± 0.02 µM.

B3: DnaT F135A (natural protein, Escherichia coli (strain K12), UniProt P0A8J2 1-179, looked up)
chain: MSSRVLTPDVVGIDALVHDHQTVLAKAEGGVVAVFANNAPAFYAVTPARLAELLALEEKLARPGSDVALDDQLYQEPQAAPVAVPMGKFAMYPDWQPDADFIRLAALWGVALREPVTTEELASFIAYWQAEGKVAHHVQWQQKLARSLQIGRASNGGLPKRDVNTVSEPDSQIPPGFRG
notes: E. coli K12 DnaT, made from the wt-DnaT vector by site-directed mutagenesis; source: E. coli BL21 (DE3), purified as the wild type; not shown: His, N-terminal, cleaved; MBP, N-terminal, cleaved
B3: the binding result in data set [5] is “binds”.

B4: DnaT Y127A/W128A double mutant (natural protein, Escherichia coli (strain K12), UniProt P0A8J2 1-179, looked up)
chain: MSSRVLTPDVVGIDALVHDHQTVLAKAEGGVVAVFANNAPAFYAVTPARLAELLALEEKLARPGSDVALDDQLYQEPQAAPVAVPMGKFAMYPDWQPDADFIRLAALWGVALREPVTTEELASFIAAAQAEGKVFHHVQWQQKLARSLQIGRASNGGLPKRDVNTVSEPDSQIPPGFRG
notes: as for B3
As to B4, in data set [5], the binding result was “binds”.

B5: DnaT Y127A (natural protein, Escherichia coli (strain K12), UniProt P0A8J2 1-179, looked up)
chain: MSSRVLTPDVVGIDALVHDHQTVLAKAEGGVVAVFANNAPAFYAVTPARLAELLALEEKLARPGSDVALDDQLYQEPQAAPVAVPMGKFAMYPDWQPDADFIRLAALWGVALREPVTTEELASFIAAWQAEGKVFHHVQWQQKLARSLQIGRASNGGLPKRDVNTVSEPDSQIPPGFRG
notes: as for B3
As for B5, the binding result in data set [5] is “binds”.

B6: DnaT K143A (natural protein, Escherichia coli (strain K12), UniProt P0A8J2 1-179, looked up)
chain: MSSRVLTPDVVGIDALVHDHQTVLAKAEGGVVAVFANNAPAFYAVTPARLAELLALEEKLARPGSDVALDDQLYQEPQAAPVAVPMGKFAMYPDWQPDADFIRLAALWGVALREPVTTEELASFIAYWQAEGKVFHHVQWQQALARSLQIGRASNGGLPKRDVNTVSEPDSQIPPGFRG
notes: as for B3
In the case of B6, the binding result in [5] was “binds”.

B7: DnaT R146A (natural protein, Escherichia coli (strain K12), UniProt P0A8J2 1-179, looked up)
chain: MSSRVLTPDVVGIDALVHDHQTVLAKAEGGVVAVFANNAPAFYAVTPARLAELLALEEKLARPGSDVALDDQLYQEPQAAPVAVPMGKFAMYPDWQPDADFIRLAALWGVALREPVTTEELASFIAYWQAEGKVFHHVQWQQKLAASLQIGRASNGGLPKRDVNTVSEPDSQIPPGFRG
notes: as for B3
For the molecule B7, the binding result in data set [5] is listed as “binds”.

B8: DnaT (full-length, wild type) (natural protein, Escherichia coli (strain K12), UniProt P0A8J2 1-179, looked up)
chain: MSSRVLTPDVVGIDALVHDHQTVLAKAEGGVVAVFANNAPAFYAVTPARLAELLALEEKLARPGSDVALDDQLYQEPQAAPVAVPMGKFAMYPDWQPDADFIRLAALWGVALREPVTTEELASFIAYWQAEGKVFHHVQWQQKLARSLQIGRASNGGLPKRDVNTVSEPDSQIPPGFRG
notes: E. coli K12 DnaT, amplified from genomic DNA; also called wt-DnaT; DnaT-FL; source: E. coli BL21 (DE3), purified (Ni-chelating resin, TEV digestion, HisTrap HP, HiTrap DEAE FF, Superdex 200); not shown: His, N-terminal, cleaved; MBP, N-terminal, cleaved
Regarding B8, the binding result in data set [7] is on record as “binds”.

B9: DnaT W128A (natural protein, Escherichia coli (strain K12), UniProt P0A8J2 1-179, looked up)
chain: MSSRVLTPDVVGIDALVHDHQTVLAKAEGGVVAVFANNAPAFYAVTPARLAELLALEEKLARPGSDVALDDQLYQEPQAAPVAVPMGKFAMYPDWQPDADFIRLAALWGVALREPVTTEELASFIAYAQAEGKVFHHVQWQQKLARSLQIGRASNGGLPKRDVNTVSEPDSQIPPGFRG
notes: as for B3
B9: in [5], the binding result is given as “binds”.

B10: DnaT K133A (natural protein, Escherichia coli (strain K12), UniProt P0A8J2 1-179, looked up)
chain: MSSRVLTPDVVGIDALVHDHQTVLAKAEGGVVAVFANNAPAFYAVTPARLAELLALEEKLARPGSDVALDDQLYQEPQAAPVAVPMGKFAMYPDWQPDADFIRLAALWGVALREPVTTEELASFIAYWQAEGAVFHHVQWQQKLARSLQIGRASNGGLPKRDVNTVSEPDSQIPPGFRG
notes: as for B3
For B10, the binding result in [5] is given as “binds”. As to TTTTTTTTTT (ssDNA) [dT10], in [8], the binding result is listed as “binds”.

Regarding AAAAAAAAAAAAAAAAAAAAAAAAAAAAAA (ssDNA) [5F-dA30], the Kd in data set [9] is 39.2 ± 3.85 µM. In the case of TTTTTTTTTTTTTTT (ssDNA) [5F-dT15], the Kd in data set [10] worked out at 16.2 ± 1.63 µM.

AAAAAAAAAAAAAAA (ssDNA) [5F-dA15]: the Kd in data set [11] turned out to be 46.7 ± 6.87 µM. Regarding CACACACACACACACACACACACACACACA (ssDNA) [5F-d(CA)15], in data set [12], the Kd is 31.5 ± 3.6 µM. For the molecule TGGTGGTGGTGGTGGTGGTGGTGGTGGTGG (ssDNA) [5F-d(TGG)10], in data set [13], the Kd came to 2.76 ± 0.28 µM.
